Source: publication PMC3176505 (Biochemistry, 2009)

How the values were obtained:
[1] = system: CCCCC1CCCC(=O)O1; test: purified protein; conditions: pH 8.3
[2] = system: CCCCCC1CCCC(=O)O1; test: purified protein; conditions: pH 8.3

| Substance | Km [1] [µM] | kcat/Km [1] [M⁻¹ s⁻¹] | Km [2] [µM] | kcat/Km [2] [M⁻¹ s⁻¹] |
| --- | --- | --- | --- | --- |
| Dr0930 (Deinococcus radiodurans R1 = ATCC 13939 = DSM 20539) | 100 ± 20 | 420000 ± 70000 | 80 ± 10 | 200000 ± 20000 |
| Dr0930 (Deinococcus radiodurans R1 = ATCC 13939 = DSM 20539; Y28F) | 100 ± 20 | 270000 ± 40000 |  |  |
| Dr0930 (Deinococcus radiodurans R1 = ATCC 13939 = DSM 20539; Y97F) | 200 ± 20 | 1700 ± 100 |  |  |
| Dr0930 (Deinococcus radiodurans R1 = ATCC 13939 = DSM 20539; Y98F) | 400 ± 20 | 18000 ± 2000 |  |  |
